The data set addresses MdAP2-34 (Malus domestica, UniProt A0A678SKA5 1-366). Nature of the data set: EMSA; LightShift Chemiluminescent EMSA Kit (Thermo Fisher); buffer, salt, pH and temperature not stated. The settings on record: protein: recombinant; tags: GST (pGEX-4T-1, N-terminal); label: 5' biotin; blunt. (A gel shift assay detects complexes by their altered migration in electrophoresis.)

Sequence of MdAP2-34 (A0A678SKA5 entry or part of it): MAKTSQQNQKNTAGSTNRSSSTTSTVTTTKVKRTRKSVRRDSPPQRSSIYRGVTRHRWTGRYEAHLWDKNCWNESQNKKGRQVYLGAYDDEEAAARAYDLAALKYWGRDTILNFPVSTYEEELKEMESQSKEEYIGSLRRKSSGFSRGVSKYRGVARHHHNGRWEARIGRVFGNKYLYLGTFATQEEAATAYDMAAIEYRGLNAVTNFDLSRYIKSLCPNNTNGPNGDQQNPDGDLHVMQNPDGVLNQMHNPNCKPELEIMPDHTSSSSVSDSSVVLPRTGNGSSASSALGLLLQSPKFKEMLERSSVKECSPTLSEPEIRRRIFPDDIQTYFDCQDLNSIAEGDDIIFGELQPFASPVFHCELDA

B1: MdPSY2-1 promoter hot probe (dsDNA)
DNA 1: CTTTTCTTCTCTCAGTACATGCACCGACGTCGATATTAACCTTGGAACCT
DNA 2: AGGTTCCAAGGTTAATATCGACGTCGGTGCATGTACTGAGAGAAGAAAAG
As for B1, the binding result is “binds”.

These data come from paper PMC8492665, “An apple (Malus domestica) AP2/ERF transcription factor modulates carotenoid accumulation”.
